Source: the RNAGym collection of RNA variant scans (doi:10.7554/elife.80360)

B1: Hairpin Ribozyme (parent)
chain: GUCCUCUUUCACGUGCGCGUGAAAGAGAGAAGUGAACCAGAGAAACACACGUUGUGGUAUAUUACCUGGUA

Variants of: B1
Assay: self-cleavage, relative activity (ratio to wild type); higher = more cleavage; co-transcriptional

First: U8C A61C
Second: U8C A61U
The self-cleavage of the first is lower: 0.0941 for the first, 0.182 for the second.

First: U8C A64G
Second: U8C A64U
The self-cleavage of the first is higher: 0.443 for the first, 0.104 for the second.

Compared with U8C A71G, U8C C10G is lower in self-cleavage: 0.974 for the first, 0.114 for the second.

Compared with U8C C12G, U8C C37U is higher in self-cleavage: 0.229 for the first, 0.347 for the second.

Compared with U8C C38G, U8C C38U is higher in self-cleavage: 0.154 for the first, 0.245 for the second.

Compared with U8C C46A, U8C C50A is higher in self-cleavage: 0.102 for the first, 0.144 for the second.

First: U8C C50G
Second: U8C C65A
The self-cleavage of the first is lower: 0.119 for the first, 0.788 for the second.

First: U8C C66G
Second: U8C G13A
The self-cleavage of the first is lower: 0.0616 for the first, 0.722 for the second.

First: U8C G13U
Second: U8C G17C
The self-cleavage of the first is higher: 0.529 for the first, 0.404 for the second.

First: U8C G17U
Second: U8C G19A
The self-cleavage of the first is higher: 0.554 for the first, 0.302 for the second.

Going from U8C G21A to U8C G21C, the self-cleavage falls from 0.264 to 0.114.

Compared with U8C G25U, U8C G29A is lower in self-cleavage: 0.32 for the first, 0.112 for the second.

Compared with U8C G29U, U8C G32C is higher in self-cleavage: 0.081 for the first, 0.0916 for the second.

Going from U8C G34A to U8C G40U, the self-cleavage falls from 1.18 to 0.164.

Compared with U8C G42A, U8C G56U is lower in self-cleavage: 0.177 for the first, 0.167 for the second.

First: U8C G57A
Second: U8C G68C
The self-cleavage of the first is lower: 0.119 for the first, 0.238 for the second.

Compared with U8C G69A, U8C G69U is lower in self-cleavage: 0.327 for the first, 0.186 for the second.

Compared with U8C U9A, U8C U9C is higher in self-cleavage: 0.266 for the first, 0.275 for the second.

Compared with U8C U52A, U8C U53C is higher in self-cleavage: 0.676 for the first, 0.766 for the second.

First: U8C U55A
Second: U8C U60A
The self-cleavage of the first is lower: 0.16 for the first, 0.554 for the second.

Compared with U8C U60C, U8C U60G is lower in self-cleavage: 1.23 for the first, 0.489 for the second.

First: U8C U63A
Second: U8C U67C
The self-cleavage of the first is lower: 0.0901 for the first, 0.159 for the second.

Going from U8C U67G to U8G A22G, the self-cleavage rises from 0.226 to 0.676.

Compared with U8G A23C, U8G A24G is lower in self-cleavage: 1.21 for the first, 0.632 for the second.

Compared with U8G A26C, U8G A26U is higher in self-cleavage: 0.25 for the first, 0.281 for the second.

Going from U8G A28G to U8G A31G, the self-cleavage falls from 0.843 to 0.47.

First: U8G A31U
Second: U8G A35G
The self-cleavage of the first is lower: 0.112 for the first, 0.667 for the second.

First: U8G A36C
Second: U8G A41G
The self-cleavage of the first is lower: 0.5 for the first, 0.673 for the second.

Going from U8G A41U to U8G A43G, the self-cleavage falls from 1.07 to 0.132.

First: U8G A44C
Second: U8G A44G
The self-cleavage of the first is lower: 0.139 for the first, 0.148 for the second.

First: U8G A44U
Second: U8G A45G
The self-cleavage of the first is higher: 0.184 for the first, 0.125 for the second.

Going from U8G A47U to U8G A49G, the self-cleavage rises from 0.168 to 0.264.

First: U8G A49U
Second: U8G A59G
The self-cleavage of the first is higher: 0.164 for the first, 0.121 for the second.

Compared with U8G A59U, U8G A61G is lower in self-cleavage: 0.188 for the first, 0.0213 for the second.

First: U8G A64C
Second: U8G A64U
The self-cleavage of the first is lower: 0.0997 for the first, 0.146 for the second.

First: U8G C10G
Second: U8G C16A
The self-cleavage of the first is higher: 0.676 for the first, 0.648 for the second.

First: U8G C16G
Second: U8G C16U
The self-cleavage of the first is lower: 0.395 for the first, 0.916 for the second.

Compared with U8G C18A, U8G C18U is lower in self-cleavage: 0.72 for the first, 0.678 for the second.

Going from U8G C38A to U8G C38U, the self-cleavage rises from 0.165 to 0.548.

First: U8G C46A
Second: U8G C46G
The self-cleavage of the first is higher: 0.134 for the first, 0.128 for the second.

Compared with U8G C46U, U8G C50U is higher in self-cleavage: 0.195 for the first, 0.327 for the second.

First: U8G C65A
Second: U8G C65U
The self-cleavage of the first is higher: 0.97 for the first, 0.363 for the second.

First: U8G C66U
Second: U8G G15A
The self-cleavage of the first is lower: 0.412 for the first, 0.897 for the second.

Compared with U8G G15C, U8G G17C is lower in self-cleavage: 0.639 for the first, 0.23 for the second.

First: U8G G19C
Second: U8G G21A
The self-cleavage of the first is lower: 0.36 for the first, 0.693 for the second.

Going from U8G G21C to U8G G25A, the self-cleavage falls from 0.401 to 0.21.

First: U8G G29C
Second: U8G G34A
The self-cleavage of the first is lower: 0.141 for the first, 0.767 for the second.

First: U8G G34C
Second: U8G G40A
The self-cleavage of the first is higher: 1.19 for the first, 0.264 for the second.

Going from U8G G40C to U8G G42A, the self-cleavage rises from 0.111 to 0.156.

Compared with U8G G51A, U8G G54U is lower in self-cleavage: 0.739 for the first, 0.37 for the second.

Compared with U8G U20A, U8G U20G is higher in self-cleavage: 0.353 for the first, 0.614 for the second.

Going from U8G U53G to U8G U55A, the self-cleavage falls from 0.705 to 0.193.

Compared with U8G U55C, U8G U62A is lower in self-cleavage: 0.232 for the first, 0.0946 for the second.

Compared with U8G U62C, U9A A22U is higher in self-cleavage: 0.332 for the first, 0.907 for the second.

Compared with U9A A23C, U9A A26G is higher in self-cleavage: 0.501 for the first, 0.825 for the second.

Going from U9A A30U to U9A A31C, the self-cleavage falls from 0.195 to 0.158.

Going from U9A A31U to U9A A35C, the self-cleavage rises from 0.0478 to 0.69.

Going from U9A A36C to U9A A36G, the self-cleavage rises from 0.456 to 0.797.

Going from U9A A39C to U9A A41C, the self-cleavage rises from 0.423 to 0.783.

Compared with U9A A41U, U9A A44C is lower in self-cleavage: 0.786 for the first, 0.132 for the second.

Compared with U9A A44U, U9A A47C is higher in self-cleavage: 0.109 for the first, 0.205 for the second.

First: U9A A49C
Second: U9A A59U
The self-cleavage of the first is higher: 0.254 for the first, 0.14 for the second.

First: U9A A61G
Second: U9A A61U
The self-cleavage of the first is lower: 0.148 for the first, 0.185 for the second.

Compared with U9A A64C, U9A A64G is higher in self-cleavage: 0.0749 for the first, 0.284 for the second.

Compared with U9A A71U, U9A C10A is higher in self-cleavage: 0.525 for the first, 0.743 for the second.

Compared with U9A C10G, U9A C10U is lower in self-cleavage: 0.519 for the first, 0.455 for the second.

Going from U9A C12U to U9A C16G, the self-cleavage falls from 0.645 to 0.511.

Going from U9A C38A to U9A C46A, the self-cleavage falls from 0.146 to 0.0884.

First: U9A C65A
Second: U9A C66A
The self-cleavage of the first is higher: 0.69 for the first, 0.166 for the second.

Compared with U9A G13A, U9A G15A is higher in self-cleavage: 0.471 for the first, 0.704 for the second.

Going from U9A G15U to U9A G17A, the self-cleavage falls from 0.864 to 0.695.

First: U9A G17C
Second: U9A G17U
The self-cleavage of the first is lower: 0.261 for the first, 0.65 for the second.

First: U9A G19C
Second: U9A G21A
The self-cleavage of the first is higher: 0.588 for the first, 0.573 for the second.

First: U9A G21U
Second: U9A G27A
The self-cleavage of the first is higher: 0.732 for the first, 0.25 for the second.

Going from U9A G34A to U9A G34U, the self-cleavage rises from 0.905 to 1.19.

First: U9A G40C
Second: U9A G42C
The self-cleavage of the first is lower: 0.133 for the first, 0.187 for the second.

Compared with U9A G51A, U9A G51C is lower in self-cleavage: 0.688 for the first, 0.673 for the second.

First: U9A G54U
Second: U9A G56U
The self-cleavage of the first is higher: 0.39 for the first, 0.178 for the second.

First: U9A G57A
Second: U9A G57U
The self-cleavage of the first is lower: 0.141 for the first, 0.182 for the second.

Going from U9A U14A to U9A U20A, the self-cleavage rises from 0.594 to 0.605.

First: U9A U20G
Second: U9A U53A
The self-cleavage of the first is lower: 0.583 for the first, 0.768 for the second.

Going from U9A U55A to U9A U55C, the self-cleavage falls from 0.225 to 0.179.

Going from U9A U60C to U9A U62A, the self-cleavage falls from 0.993 to 0.174.

For U9A U67C, the self-cleavage was 0.174.
